Measured values taken from PMC4658161, “Mutually Exclusive Roles of SHARPIN in Integrin Inactivation and NF-κB Signaling” (PLoS ONE, 2015).

B1: GST-SHARPIN^WT [not stated] / recombinant RNF31 [not stated] (parent complex)
chain 1: MAPPAGGAAAAASDLGSAAVLLAVHAAVRPLGAGPDAEAQLRRLQLSADPERPGRFRLELLGAGPGAVNLEWPLESVSYTIRGPTQHELQPPPGGPGTLSLHFLNPQEAQRWAVLVRGATVEGQNGSKSNSPPALGPEACPVSLPSPPEASTLKGPPPEADLPRSPGNLTEREELAGSLARAIAGGDEKGAAQVAAVLAQHRVALSVQLQEACFPPGPIRLQVTLEDAASAASAASSAHVALQVHPHCTVAALQEQVFSELGFPPAVQRWVIGRCLCVPERSLASYGVRQDGDPAFLYLLSAPREAPATGPSPQHPQKMDGELGRLFPPSLGLPPGPQPAASSLPSPLQPSWSCPSCTFINAPDRPGCEMCSTQRPCTWDPLAAAST
chain 2: MPGEEEERAFLVAREELASALRRDSGQAFSLEQLRPLLASSLPLAARYLQLDAARLVRCNAHGEPRNYLNTLSTALNILEKYGRNLLSPQRPRYWRGVKFNNPVFRSTVDAVQGGRDVLRLYGYTEEQPDGLSFPEGQEEPDEHQVATVTLEVLLLRTELSLLLQNTHPRQQALEQLLEDKVEDDMLQLSEFDPLLREIAPGPLTTPSVPGSTPGPCFLCGSAPGTLHCPSCKQALCPACDHLFHGHPSRAHHLRQTLPGVLQGTHLSPSLPASAQPRPQSTSLLALGDSSLSSPNPASAHLPWHCAACAMLNEPWAVLCVACDRPRGCKGLGLGTEGPQGTGGLEPDLARGRWACQSCTFENEAAAVLCSICERPRLAQPPSLVVDSRDAGICLQPLQQGDALLASAQSQVWYCIHCTFCNSSPGWVCVMCNRTSSPIPAQHAPRPYASSLEKGPPKPGPPRRLSAPLPSSCGDPEKQRQDKMREEGLQLVSMIREGEAAGACPEEIFSALQYSGTEVPLQWLRSELPYVLEMVAELAGQQDPGLGAFSCQEARRAWLDRHGNLDEAVEECVRTRRRKVQELQSLGFGPEEGSLQALFQHGGDVSRALTELQRQRLEPFRQRLWDSGPEPTPSWDGPDKQSLVRRLLAVYALPSWGRAELALSLLQETPRNYELGDVVEAVRHSQDRAFLRRLLAQECAVCGWALPHNRMQALTSCECTICPDCFRQHFTIALKEKHITDMVCPACGRPDLTDDTQLLSYFSTLDIQLRESLEPDAYALFHKKLTEGVLMRDPKFLWCAQCSFGFIYEREQLEATCPQCHQTFCVRCKRQWEEQHRGRSCEDFQNWKRMNDPEYQAQGLAMYLQENGIDCPKCKFSYALARGGCMHFHCTQCRHQFCSGCYNAFYAKNKCPEPNCRVKKSLHGHHPRDCLFYLRDWTALRLQKLLQDNNVMFNTEPPAGARAVPGGGCRVIEQKEVPNGLRDEACGKETPAGYAGLCQAHYKEYLVSLINAHSLDPATLYEVEELETATERYLHVRPQPLAGEDPPAYQARLLQKLTEEVPLGQSIPRRRK

Variants of: B1
Experiment: ELISA-based binding assay; n = 3; parent: 1; read off a plot

For chain 1 L276A, which response is on record?
The response was roughly 0.49 Abs 450nm.

Which response does the source give for chain 1 V267A here?
Its response is roughly 0.69 Abs 450nm.

chain 1 L261A, chain 1 F263A was tested. Which response did it give?
Its response is roughly 0.7 Abs 450nm.

chain 1 I272A was tested. Which response did it give?
Its response is roughly 0.45 Abs 450nm.
